Measurements as given in paper PMC5586343, “t‐Darpp is an elongated monomer that binds calcium and is phosphorylated by cyclin‐dependent kinases 1 and 5” (FEBS Open Bio, 2017).

Target: the molecule itself
Test: cross-linking; glutaraldehyde 0.1% (v/v) and 1% (v/v), 30 min at 25 °C, then SDS/PAGE; each protein alone and an equimolar mixture of t‐Darpp and Darpp‐32

B1: Darpp‐32 (dopamine‐ and cAMP‐regulated phosphoprotein) (natural protein, human, UniProt Q9UD71-1 1-204, looked up)
chain: MDPKDRKKIQFSVPAPPSQLDPRQVEMIRRRRPTPAMLFRLSEHSSPEEEASPHQRASGEGHHLKSKRPNPCAYTPPSLKAVQRIAESHLQSISNLNENQASEEEDELGELRELGYPREEDEEEEEDDEEEEEEEDSQAEVLKVIRQSAGQKTTCGQGLEGPWERPPPLDESERDGGSEDQVEDPALSEPGEEPQRPSPSEPGT
notes: Darpp‐32, longer isoform of PPP1R1B with 36 additional N-terminal residues compared with t‐Darpp; cDNA amplified from Darpp‐32/pET‐49 and cloned into pET‐28a; source: E. coli BL21 DE3, purified (Ni‐NTA)
  stoichiometry N: 2
